Test results from patent publication US20190330344A1 (F STAR THERAPEUTICS, published 2019).
Residue numbers refer to the chain shown, from its start.

Tests used:
human FcγRI (human) = human FcγRI (human) (UniProt P12314); assay: SPR (Biacore T200), FcγR immobilised, 200 µg/ml analyte
human FcγRIII (human) = human FcγRIII (human) (UniProt P08637); assay: as above
human FcγRIIb (human) = human FcγRIIb (human) (UniProt P31994); assay: SPR (Biacore T200), FcγR immobilised, 500 µg/ml analyte
human FcγRIIa (human) = human FcγRIIa (human) (UniProt P12318); assay: as above
[1] = target: mouse LAG-3 expressed on cells (HEK cells expressing mLAG-3 or DO11.10 mLAG-3) (mouse) (UniProt Q61790); assay: cell-based or functional assay
[2] = target: T1, human LAG-3 expressed on cells (DO11.10 or HEK 293 cells over-expressing human LAG-3) (human, UniProt P18627 23-525); assay: cell-based or functional assay
T1 sequence: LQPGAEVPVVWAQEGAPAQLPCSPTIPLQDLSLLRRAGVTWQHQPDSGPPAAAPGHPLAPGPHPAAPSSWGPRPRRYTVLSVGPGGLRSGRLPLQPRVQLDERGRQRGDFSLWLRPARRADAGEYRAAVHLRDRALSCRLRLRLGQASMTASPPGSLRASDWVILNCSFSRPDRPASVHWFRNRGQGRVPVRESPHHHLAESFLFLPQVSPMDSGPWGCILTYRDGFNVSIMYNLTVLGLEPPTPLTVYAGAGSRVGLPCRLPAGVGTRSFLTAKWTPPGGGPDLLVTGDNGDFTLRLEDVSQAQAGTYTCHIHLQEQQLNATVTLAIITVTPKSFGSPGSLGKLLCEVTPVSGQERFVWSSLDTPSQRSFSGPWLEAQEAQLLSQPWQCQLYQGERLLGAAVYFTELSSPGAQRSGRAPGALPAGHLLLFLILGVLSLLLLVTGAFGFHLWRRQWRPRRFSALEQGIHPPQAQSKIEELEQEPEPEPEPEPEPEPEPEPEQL

[3] = target: T2, mouse LAG-3 expressed on cells (HEK cells expressing mLAG-3 or DO11.10 mLAG-3) (mouse, UniProt Q61790 24-521); assay: cell-based or functional assay
T2 sequence: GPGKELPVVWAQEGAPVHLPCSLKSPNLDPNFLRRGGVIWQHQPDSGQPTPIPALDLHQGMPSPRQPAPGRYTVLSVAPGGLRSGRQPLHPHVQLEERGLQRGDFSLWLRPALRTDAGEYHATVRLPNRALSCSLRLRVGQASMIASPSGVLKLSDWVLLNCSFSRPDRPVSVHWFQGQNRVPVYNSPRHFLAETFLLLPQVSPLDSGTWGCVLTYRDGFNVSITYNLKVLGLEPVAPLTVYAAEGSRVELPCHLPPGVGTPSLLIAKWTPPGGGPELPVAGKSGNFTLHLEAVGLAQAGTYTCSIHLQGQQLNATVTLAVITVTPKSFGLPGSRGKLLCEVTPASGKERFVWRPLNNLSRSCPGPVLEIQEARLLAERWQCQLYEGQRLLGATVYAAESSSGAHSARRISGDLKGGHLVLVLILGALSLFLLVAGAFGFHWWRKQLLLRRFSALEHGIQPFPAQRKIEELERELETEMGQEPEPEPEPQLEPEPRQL

[4] = target: T3, cynomolgus LAG-3 expressed on DO11.10 cells (cynomolgus monkey, UniProt P18627 24-525 (human entry)); assay: cell-based or functional assay
T3 chain: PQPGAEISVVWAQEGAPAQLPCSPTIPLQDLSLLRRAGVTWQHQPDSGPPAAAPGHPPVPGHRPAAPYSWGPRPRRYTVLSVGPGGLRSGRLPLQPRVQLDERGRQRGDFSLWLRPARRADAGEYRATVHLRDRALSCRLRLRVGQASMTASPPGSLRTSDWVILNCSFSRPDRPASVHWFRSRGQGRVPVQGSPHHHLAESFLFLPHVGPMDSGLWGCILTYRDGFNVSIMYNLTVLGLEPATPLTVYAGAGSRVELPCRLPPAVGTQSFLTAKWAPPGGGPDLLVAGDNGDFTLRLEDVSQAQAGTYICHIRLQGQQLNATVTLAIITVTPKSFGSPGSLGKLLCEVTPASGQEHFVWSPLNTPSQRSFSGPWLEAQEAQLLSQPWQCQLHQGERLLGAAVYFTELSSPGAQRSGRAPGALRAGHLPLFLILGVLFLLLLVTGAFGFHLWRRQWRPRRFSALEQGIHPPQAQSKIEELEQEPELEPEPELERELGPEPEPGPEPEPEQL

human FcγRIII (human), sequence (P08637 17-208 limits assumed): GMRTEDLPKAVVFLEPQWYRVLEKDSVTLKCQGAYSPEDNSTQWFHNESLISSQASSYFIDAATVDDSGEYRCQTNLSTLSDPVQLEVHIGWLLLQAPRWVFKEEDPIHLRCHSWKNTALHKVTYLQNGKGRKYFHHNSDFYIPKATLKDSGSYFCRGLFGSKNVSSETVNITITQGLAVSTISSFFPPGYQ
human FcγRIIa (human), sequence (P12318 36-218 limits assumed): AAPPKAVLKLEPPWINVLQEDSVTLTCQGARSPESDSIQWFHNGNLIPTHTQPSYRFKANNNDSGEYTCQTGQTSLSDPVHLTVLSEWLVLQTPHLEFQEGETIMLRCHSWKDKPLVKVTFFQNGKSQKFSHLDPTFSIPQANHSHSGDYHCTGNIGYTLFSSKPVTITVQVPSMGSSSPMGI
human FcγRIIb (human), sequence (P31994 46-217 limits assumed): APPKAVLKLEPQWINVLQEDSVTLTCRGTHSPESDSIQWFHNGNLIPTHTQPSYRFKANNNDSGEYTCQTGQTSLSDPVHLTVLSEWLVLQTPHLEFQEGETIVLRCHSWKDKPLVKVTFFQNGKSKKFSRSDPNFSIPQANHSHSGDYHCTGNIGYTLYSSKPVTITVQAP
human FcγRI (human), sequence (P12314 16-288 limits assumed): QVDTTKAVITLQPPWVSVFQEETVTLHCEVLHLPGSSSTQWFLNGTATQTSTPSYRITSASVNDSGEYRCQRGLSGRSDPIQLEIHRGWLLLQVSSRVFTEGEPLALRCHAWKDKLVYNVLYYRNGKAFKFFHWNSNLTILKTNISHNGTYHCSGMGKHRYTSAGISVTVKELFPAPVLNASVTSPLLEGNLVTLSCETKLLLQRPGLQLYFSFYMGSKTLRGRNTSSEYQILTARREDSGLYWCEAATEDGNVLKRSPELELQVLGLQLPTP

A Binding response at end of association (RU) (human FcγRI (human)) of 26 RU, a Binding response at end of association (RU) (human FcγRIII (human)) of 44 RU and a Binding response at end of association (RU) (human FcγRIIb (human)) of 17.7 RU were found for “mock mAb IgG1 (wild type IgG1 isotype mAb, positive control without LALA) (antibody)” in this work. The Binding response at end of association (RU) (human FcγRIIa (human)) was 13 RU.

A Binding response at end of association (RU) (human FcγRI (human)) of 2 RU, a Binding response at end of association (RU) (human FcγRIII (human)) of 8 RU and a Binding response at end of association (RU) (human FcγRIIb (human)) of -9.6 RU were found for “mock mAb LALA (control LALA IgG1 mAb) (antibody)” in this work. The Binding response at end of association (RU) (human FcγRIIa (human)) was -12.7 RU.

An EC50 of mIL-2 release, DO11.10 T cell activation assay (mouse LAG-3) [1] of 5.1 nM and a Maximal IL-2 release [1] of 48 pg/mL were found for “benchmark anti-mouse LAG-3 mAb C9B7W (2B Scientific, BE0174-50MG) (antibody)” in this work.

B1: anti-human LAG-3 Fcab FS18-7-95 with truncated hinge and LALA mutation (designed binder)
chain: TCPPCPAPEAAGGPSVFLFPPKPKDTLMISRTPEVTCVVVDVSHEDPEVKFNWYVDGVEVHNAKTKPREEQYNSTYRVVSVLTVLHQDWLNGKEYKCKVSNKALPAPIEKTISKAKGQPREPQVYTLPPSWDEPWGEDVSLTCLVKGFYPSDIAVEWESNGYQEDNYKTTPPVLDSDGSFFLYSKLTVPYDRWVWPDEFSCSVMHEALHNHYTQKSLSLSPG
B1 was tested, and the “EC50 of mIL-2 release, DO11.10 T cell activation assay (human LAG-3)” value (“EC50 of mIL-2 release … (human LAG-3)” for short) [2] was 0.8 nM.

B2: anti-human LAG-3 Fcab FS18-7-32 with truncated hinge and LALA mutation (designed binder)
chain: B1 chain with D152E, Y162Q, Q163P, D165N
For B2, the “EC50 of mIL-2 release … (human LAG-3)” value [2] was 1.7 nM.

B3: surrogate anti-mouse LAG-3 Fcab FS18-7-108-29 with truncated hinge, comprising LALA mutation (designed binder)
chain: B1 chain with A154V, Y162Q, Q163P, D165N, Y190F, D191E, V194M
For B3, the “EC50 of mIL-2 release, DO11.10 T cell activation assay (mouse LAG-3)” value [3] was 1.9 nM.

B4: surrogate anti-mouse LAG-3 Fcab FS18-7-108-35 with truncated hinge, comprising LALA mutation (designed binder)
chain: B1 chain with A154S, Y162Q, Q163P, D165N, Y190F, D191E, V194M
For B4, the “EC50 of mIL-2 release, DO11.10 T cell activation assay (mouse LAG-3)” value [3] was 1.8 nM.

B5: anti-human LAG-3 Fcab FS18-7-78 with truncated hinge and LALA mutation (designed binder)
chain: B1 chain with Q163K, D165E
For B5, the “EC50 of mIL-2 release … (human LAG-3)” value [2] was 1 nM.

B6: FS18-7-9/4420LALA (anti-human LAG-3 Fcab FS18-7-9 in mock mAb^2 format comprising the LALA mutation) (bispecific antibody, human IgG1, kappa, L234A L235A)
heavy: EVKLDETGGGLVQPGRPMKLSCVASGFTFSDYWMNWVRQSPEKGLEWVAQIRNKPYNYETYYSDSVKGRFTISRDDSKSSVYLQMNNLRVEDMGIYYCTGSYYGMDYWGQGTSVTVSSASTKGPSVFPLAPSSKSTSGGTAALGCLVKDYFPEPVTVSWNSGALTSGVHTFPAVLQSSGLYSLSSVVTVPSSSLGTQTYICNVNHKPSNTKVDKKVEPKSCDKTHTCPPCPAPEAAGGPSVFLFPPKPKDTLMISRTPEVTCVVVDVSHEDPEVKFNWYVDGVEVHNAKTKPREEQYNSTYRVVSVLTVLHQDWLNGKEYKCKVSNKALPAPIEKTISKAKGQPREPQVYTLPPSWDEPWGEDVSLTCLVKGFYPSDIAVEWESNGQPENNYKTTPPVLDSDGSFFLYSKLTVPYDRWVWPDEFSCSVMHEALHNHYTQKSLSLSPG
light: DVVMTQTPLSLPVSLGDQASISCRSSQSLVHSNGNTYLRWYLQKPGQSPKVLIYKVSNRFSGVPDRFSGSGSGTDFTLKISRVEAEDLGVYFCSQSTHVPWTFGGGTKLEIKRTVAAPSVFIFPPSDEQLKSGTASVVCLLNNFYPREAKVQWKVDNALQSGNSQESVTEQDSKDSTYSLSSTLTLSKADYEKHKVYACEVTHQGLSSPVTKSFNRGEC
In the case of B6, the “EC50 of mIL-2 release, cynomolgus LAG-3 DO11.10 T cell activation assay” value [4] is reported as 5.6 nM.

B7: anti-human LAG-3 Fcab FS18-7-62 with truncated hinge and LALA mutation (designed binder)
chain: B1 chain with Y162I, Q163P, D165W
For B7, the “EC50 of mIL-2 release … (human LAG-3)” value [2] was 1.1 nM.

B8: anti-human LAG-3 Fcab FS18-7-33 with truncated hinge and LALA mutation (designed binder)
chain: B1 chain with Y162Q, Q163P
B8 was tested, and the “EC50 of mIL-2 release … (human LAG-3)” value [2] was 1.1 nM.

B9: anti-human LAG-3 Fcab FS18-7-65 with truncated hinge and LALA mutation (designed binder)
chain: B1 chain with Q163A, D165Y
B9 was tested, and the “EC50 of mIL-2 release … (human LAG-3)” value [2] was 1.1 nM.

B10: anti-human LAG-3 Fcab FS18-7-9 with truncated hinge and LALA mutation (designed binder)
chain: B1 chain with Y162Q, Q163P, D165N
In the case of B10, the “EC50 of mIL-2 release … (human LAG-3)” value [2] is reported as 1.2 nM.

B11: anti-human LAG-3 Fcab FS18-7-36 with truncated hinge and LALA mutation (designed binder)
chain: B1 chain with Y162Q, Q163P, D165N, F180Y
For B11, the “EC50 of mIL-2 release … (human LAG-3)” value [2] was 1.3 nM.

B12: anti-human LAG-3 Fcab FS18-7-58 with truncated hinge and LALA mutation (designed binder)
chain: B1 chain with Q163P, D165I, N166E, Y167F
For B12, the “EC50 of mIL-2 release … (human LAG-3)” value [2] was 1.3 nM.

B13: anti-human LAG-3 Fcab FS18-7-88 with truncated hinge and LALA mutation (designed binder)
chain: B1 chain with Y162V, Q163P, D165L, Y167V
B13 was tested, and the “EC50 of mIL-2 release … (human LAG-3)” value [2] was 1.3 nM.
